Laboratory results: patent CN114634565A

Tests used:
[1] = molecular target: 裂谷热病毒Gn蛋白 (GenBank: DQ380208.1) (裂谷热病毒 (Rift Valley fever virus))
[2] = molecular target: 裂谷热病毒Gn蛋白 (GenBank: DQ380208.1) (裂谷热病毒 (Rift Valley fever virus)); remark: listed apart in the source
[3] = molecular target: 裂谷热病毒Gn蛋白 (GenBank: DQ380208.1) (裂谷热病毒 (Rift Valley fever virus)); remark: listed apart in the source

B1: 抗裂谷热病毒的单克隆抗体E44 (antibody, V domains shown)
VH: QVQLQQWGEGLVNPSEALSLTCAVYGDSISDDYHWSWIRQPPGKGLEWIGYIFGSSAGTNYNPSLKNRVTISKDTSKNQFSLELTSVTAADTAVYYCARDVTTDRLDVWGPGVPVTVSS
VL: NFMLTQPPSVSADQGQRVTISCSGSSFNVRRYYVSWYQQVPGAAPKLLISDVNKRPSGVSDRFSGSQSGTSATLGISGLRPEDEADYYCSVWDSSLGARVFGGGTRLTVLG
OD值 (OD450nm-OD630nm) [1]: 2.35 | EC50 [2]: 2.66 ng/mL | Kd [3]: 2.58 nM
